B1: MOBK1B (protein, UniProt Q7L9L4 2-216, looked up)
MOB kinase activator 1B: SFLFGSRSSKTFKPKKNIPEGSHQYELLKHAEATLGSGNLRMAVMLPEGEDLNEWVAVNTVDFFNQINMLYGTITDFCTEESCPVMSAGPKYEYHWADGTNIKKPIKCSAPKYIDYLMTWVQDQLDDETLFPSKIGVPFPKNFMSVAKTILKRLFRVYAHIYHQHFDPVIQLQEEAHLNTSFKHFIFFVQEFNLIDRRELAPLQELIEKLTSKDR
B2: GPS2 (protein, UniProt Q13227 1-327, looked up)
G protein pathway suppressor 2: MPALLERPKLSNAMARALHRHIMMERERKRQEEEEVDKMMEQKMKEEQERRKKKEMEERMSLEETKEQILKLEEKLLALQEEKHQLFLQLKKVLHEEEKRRRKEQSDLTTLTSAAYQQSLTVHTGTHLLSMQGSPGGHNRPGTLMAADRAKQMFGPQVLTTRHYVGSAAAFAGTPEHGQFQGSPGGAYGTAQPPPHYGPTQPAYSPSQQLRAPSAFPAVQYLSQPQPQPYAVHGHFQPTQTGFLQPGGALSLQKQMEHANQQTGFSDSSSLRPMHPQALHPAPGLLASPQLPVQMQPAGKSGFAATSQPGPRLPFIQHSQNPRFYHK
B3: ITGAL (protein, UniProt P20701 26-1170, looked up)
Integrin alpha-L: YNLDVRGARSFSPPRAGRHFGYRVLQVGNGVIVGAPGEGNSTGSLYQCQSGTGHCLPVTLRGSNYTSKYLGMTLATDPTDGSILACDPGLSRTCDQNTYLSGLCYLFRQNLQGPMLQGRPGFQECIKGNVDLVFLFDGSMSLQPDEFQKILDFMKDVMKKLSNTSYQFAAVQFSTSYKTEFDFSDYVKRKDPDALLKHVKHMLLLTNTFGAINYVATEVFREELGARPDATKVLIIITDGEATDSGNIDAAKDIIRYIIGIGKHFQTKESQETLHKFASKPASEFVKILDTFEKLKDLFTELQKKIYVIEGTSKQDLTSFNMELSSSGISADLSRGHAVVGAVGAKDWAGGFLDLKADLQDDTFIGNEPLTPEVRAGYLGYTVTWLPSRQKTSLLASGAPRYQHMGRVLLFQEPQGGGHWSQVQTIHGTQIGSYFGGELCGVDVDQDGETELLLIGAPLFYGEQRGGRVFIYQRRQLGFEEVSELQGDPGYPLGRFGEAITALTDINGDGLVDVAVGAPLEEQGAVYIFNGRHGGLSPQPSQRIEGTQVLSGIQWFGRSIHGVKDLEGDGLADVAVGAESQMIVLSSRPVVDMVTLMSFSPAEIPVHEVECSYSTSNKMKEGVNITICFQIKSLIPQFQGRLVANLTYTLQLDGHRTRRRGLFPGGRHELRRNIAVTTSMSCTDFSFHFPVCVQDLISPINVSLNFSLWEEEGTPRDQRAQGKDIPPILRPSLHSETWEIPFEKNCGEDKKCEANLRVSFSPARSRALRLTAFASLSVELSLSNLEEDAYWVQLDLHFPPGLSFRKVEMLKPHSQIPVSCEELPEESRLLSRALSCNVSSPIFKAGHSVALQMMFNTLVNSSWGDSVELHANVTCNNEDSDLLEDNSATTIIPILYPINILIQDQEDSTLYVSFTPKGPKIHQVKHMYQVRIQPSIHDHNIPTLEAVVGVPQPPSEGPITHQWSVQMEPPVPCHYEDLERLPDAAEPCLPGALFRCPVVFRQEILVQVIGTLELVGEIEASSMFSLCSSLSISFNSSKHFHLYGSNASLAQVVMKVDVVYEKQMLYLYVLSGIGGLLLLLLIFIVLYKVGFFKRNLKEKMEAGRGVPNGIPAEDSEQLASGQEAGDPGCLKPLHEKDSESGGGKD
B4: GOLGA2 (protein, UniProt Q08379 1-1002, looked up)
Golgin subfamily A member 2: MWPQPRLPPRPAMSEETRQSKLAAAKKKLREYQQRNSPGVPTGAKKKKKIKNGSNPETTTSGGCHSPEDTPKDNAATLQPSDDTVLPGGVPSPGASLTSMAASQNHDADNVPNLMDETKTFSSTESLRQLSQQLNGLVCESATCVNGEGPASSANLKDLESRYQQLAVALDSSYVTNKQLNITIEKLKQQNQEITDQLEEEKKECHQKQGALREQLQVHIQTIGILVSEKAELQTALAHTQHAARQKEGESEDLASRLQYSRRRVGELERALSAVSTQQKKADRYNKELTKERDALRLELYKNTQSNEDLKQEKSELEEKLRVLVTEKAGMQLNLEELQKKLEMTELLLQQFSSRCEAPDANQQLQQAMEERAQLEAHLGQVMESVRQLQMERDKYAENLKGESAMWRQRMQQMSEQVHTLREEKECSMSRVQELETSLAELRNQMAEPPPPEPPAGPSEVEQQLQAEAEHLRKELEGLAGQLQAQVQDNEGLSRLNREQEERLLELERAAELWGEQAEARRQILETMQNDRTTISRALSQNRELKEQLAELQSGFVKLTNENMEITSALQSEQHVKRELGKKLGELQEKLSELKETVELKSQEAQSLQQQRDQYLGHLQQYVAAYQQLTSEKEVLHNQLLLQTQLVDQLQQQEAQGKAVAEMARQELQETQERLEAATQQNQQLRAQLSLMAHPGEGDGLDREEEEDEEEEEEEAVAVPQPMPSIPEDLESREAMVAFFNSAVASAEEEQARLRGQLKEQRVRCRRLAHLLASAQKEPEAAAPAPGTGGDSVCGETHRALQGAMEKLQSRFMELMQEKADLKERVEELEHRCIQLSGETDTIGEYIALYQSQRAVLKERHREKEEYISRLAQDKEEMKVKLLELQELVLRLVGDRNEWHGRFLAAAQNPADEPTSGAPAPQELGAANQQGDLCEVSLAGSVEPAQGEAREGSPRDNPTAQQIMQLLREMQNPRERPGLGSNPCIPFFYRADENDEVKITVI
B5: SORBS2 (protein, UniProt O94875 1-1100, looked up)
Sorbin and SH3 …: MSYYQRPFSPSAYSLPASLNSSIVMQHGTSLDSTDTYPQHAQSLDGTTSSSIPLYRSSEEEKRVTVIKAPHYPGIGPVDESGIPTAIRTTVDRPKDWYKTMFKQIHMVHKPDDDTDMYNTPYTYNAGLYNPPYSAQSHPAAKTQTYRPLSKSHSDNSPNAFKDASSPVPPPHVPPPVPPLRPRDRSSTEKHDWDPPDRKVDTRKFRSEPRSIFEYEPGKSSILQHERPASLYQSSIDRSLERPMSSASMASDFRKRRKSEPAVGPPRGLGDQSASRTSPGRVDLPGSSTTLTKSFTSSSPSSPSRAKGGDDSKICPSLCSYSGLNGNPSSELDYCSTYRQHLDVPRDSPRAISFKNGWQMARQNAEIWSSTEETVSPKIKSRSCDDLLNDDCDSFPDPKVKSESMGSLLCEEDSKESCPMAWGSPYVPEVRSNGRSRIRHRSARNAPGFLKMYKKMHRINRKDLMNSEVICSVKSRILQYESEQQHKDLLRAWSQCSTEEVPRDMVPTRISEFEKLIQKSKSMPNLGDDMLSPVTLEPPQNGLCPKRRFSIEYLLEEENQSGPPARGRRGCQSNALVPIHIEVTSDEQPRAHVEFSDSDQDGVVSDHSDYIHLEGSSFCSESDFDHFSFTSSESFYGSSHHHHHHHHHHHRHLISSCKGRCPASYTRFTTMLKHERARHENTEEPRRQEMDPGLSKLAFLVSPVPFRRKKNSAPKKQTEKAKCKASVFEALDSALKDICDQIKAEKKRGSLPDNSILHRLISELLPDVPERNSSLRALRRSPLHQPLHPLPPDGAIHCPPYQNDCGRMPRSASFQDVDTANSSCHHQDRGGALQDRESPRSYSSTLTDMGRSAPRERRGTPEKEKLPAKAVYDFKAQTSKELSFKKGDTVYILRKIDQNWYEGEHHGRVGIFPISYVEKLTPPEKAQPARPPPPAQPGEIGEAIAKYNFNADTNVELSLRKGDRVILLKRVDQNWYEGKIPGTNRQGIFPVSYVEVVKKNTKGAEDYPDPPIPHSYSSDRIHSLSSNKPQRPVFTHENIQGGGEPFQALYNYTPRNEDELELRESDVIDVMEKCDDGWFVGTSRRTKFFGTFPGNYVKRL

The molecules below were run against T1, HCV ORFs (Gal4-DB fusions) (Hepatitis C virus genotype 1b, UniProt Q9WMX2) (assay: not given). Conditions: HCV protein NS5A as bait; human protein as prey.
T1 construct: expressed in transfected cells; host or cells: Saccharomyces cerevisiae MAV203 (IMAP1) / AH109 (IMAP2)
Assay type: binding, HCV genotype 1b, isolate con1

Question: Which “IMAP Y2H IMAP2 (number of IST)” value does the source give for B1 here?
Answer: Its value is 5.

Question: How did the “IMAP Y2H IMAP2 (number of IST)” value turn out when B2 was run?
Answer: The value was 1.

Question: For B3, which “IMAP Y2H IMAP2 (number of IST)” value is on record?
Answer: The value was 1.

Question: Which “IMAP Y2H IMAP2 (number of IST)” value does the source give for B4 here?
Answer: The value was 15.

Question: How did the “IMAP Y2H IMAP2 (number of IST)” value turn out when B5 was run?
Answer: Its value is 8.

Same assay, conditions: HCV protein NS5B as bait; human protein as prey

Question: How did the “IMAP Y2H IMAP2 (number of IST)” value turn out when B1 was run?
Answer: Its value is 3.

What follows are molecules tested on HCV ORFs (Gal4-DB fusions) (assay: not given). Conditions: human protein listed by gene symbol; the value names the HCV protein it interacts with.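 Also: yeast two-hybrid screens using HCV genotype 1b proteins fused to Gal4-DB as baits against prey cDNA libraries from human spleen and foetal brain, IMAP1 via transformation and IMAP2 via mating.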
Assay type: binding, HCV genotype 1b, isolate con1

Question: With B1 as the molecule, how does the “Interaction with viral protein” value read?
Answer: Its value is “NS5A”.

Question: How did the “Interaction with viral protein” value turn out when B2 was run?
Answer: The value was “NS5A”.

Question: B3 was tested. Which “Interaction with viral protein” value did it give?
Answer: The value was “NS5A”.

Question: With B4 as the molecule, how does the “Interaction with viral protein” value read?
Answer: Its value is “NS5A”.

Question: With B5 as the molecule, how does the “Interaction with viral protein” value read?
Answer: Its value is “NS5A”.

The molecules below were run against T2, GST-tagged viral proteins (Hepatitis C virus genotype 1b, UniProt Q9WMX2) (assay: Validation by co-affinity purification (CoAP)). Conditions: interaction with HCV protein NS5A.
T2 construct: expressed in transfected cells; host or cells: HEK-293T
Assay type: binding, HCV genotype 1b, isolate con1
Design: key: +: IMAP validation; −: not validated; NA: non assayable due to default of protein expression or to cellular protein directly interacting with GST
Source text: C. Validation of Y2H interactions by co-affinity purification assay. Nine co-AP positive assays are shown, representing: NS5A-SORBS2 (1), NS3-CALCOCO2 (2), NS5A-BIN1 (3), NS5A-MOBK1B (4), NS5A-EFEMP1 (5), NS3-PSMB9 and NS5A-PSMB9 (6), NS5A-PPPIRI3L (7), NS3-RASAL2 (8). After pull-down with GST tagged viral baits (+) or with negative control GST alone (−), cellular preys are identified with anti-Flag antibody. Anti-GST antibody identifies either GST alone or GST-tagged viral baits. Expression of cellular preys in cell lysate is controlled by anti-Flag (bottom panel). […]
A random pool of 59 IMAP Y2H interactions was chosen for CoAP assays. Cellular ORFs (interacting domains found in Y2H screens) were cloned by recombinational cloning from a pool of human cDNA library or the MGC cDNA plasmids using KOD polymerase (Toyobo) into pDONR207 (Invitrogen). After validation by sequencing, these ORFs were transferred to pCi-neo-3xFLAG gateway-converted, and HCV ORFs were transferred into pDEST27 (GST fusion in N-term). HEK-293T cells were then co-transfected (JetPei, Polyplus) by each pair of plasmid encoding interacting proteins. Controls are GST alone against 3xFLAG-tagged preys. Two days after transfection, cells were harvested and lysed (0.5% NP-40, 20 mM Tris-HCl (pH 8.0), 180 mM NaCl, 1 mM EDTA, and complete protease inhibitor cocktail). Cell lysates were cleared by centrifugation for 20 min at 13,000 rpm at 4° C. and soluble protein complexes were purified using Glutathione Sepharose 4B beads (GE Healthcare). Beads were then washed extensively four times with lysis buffer and proteins were separated on SDS-PAGE and transferred to nitrocellulose membrane. GST-tagged viral proteins and 3xFLAG-tagged cellular proteins were detected using standard immunoblotting techniques using anti-GST (Covance) and anti-FLAG M2 (Sigma) monoclonal antibodies (21).

T2 sequence (Q9WMX2 1973-2419): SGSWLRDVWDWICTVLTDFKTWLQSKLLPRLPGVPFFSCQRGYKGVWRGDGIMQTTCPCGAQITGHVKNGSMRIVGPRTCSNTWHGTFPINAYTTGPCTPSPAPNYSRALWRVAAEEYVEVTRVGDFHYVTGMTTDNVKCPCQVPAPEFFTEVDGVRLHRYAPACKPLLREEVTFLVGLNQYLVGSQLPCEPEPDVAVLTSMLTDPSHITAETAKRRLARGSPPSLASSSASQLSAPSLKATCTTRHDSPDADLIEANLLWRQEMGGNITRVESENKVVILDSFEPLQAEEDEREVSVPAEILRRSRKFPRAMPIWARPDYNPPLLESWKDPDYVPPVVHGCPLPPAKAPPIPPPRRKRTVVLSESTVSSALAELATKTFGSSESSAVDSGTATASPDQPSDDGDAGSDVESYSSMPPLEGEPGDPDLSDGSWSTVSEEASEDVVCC

Question: B1 was tested. Which CoAP did it give?
Answer: Its CoAP is “+”.

Question: B2 was tested. Which CoAP did it give?
Answer: The CoAP was “+”.

Question: With B3 as the molecule, how does the CoAP read?
Answer: Its CoAP is “+”.

Question: With B4 as the molecule, how does the CoAP read?
Answer: Its CoAP is “+”.

Question: Which CoAP does the source give for B5 here?
Answer: The CoAP was “+”.

— US20110091994A1, “Methods for Screening Compounds for Treating and/or Preventing an Hepatitis C Virus Infection” (priority 2008, published 2011)
